Experimental data published in publication PMC6381110, “Allosteric enhancement of ORP1-mediated cholesterol transport by PI(4,5)P2/PI(3,4)P2” (Nature Communications, 2019).
Where “and” joins values, the source holds several entries; their conditions need not be identical. Equal entries are not always repeated.

Assays:
[1] = target: the molecule itself; assay: SEC; Superdex-200 10/300, 10 mM Tris-HCl pH 8.0, 150 mM NaCl, 2 mM DTT; ORP1-ORD 5 uM alone or with cholesterol (free or in liposomes, 4:1); cholesterol shifts the protein towards monomer
[2] = target: the molecule itself; assay: crystal structure; ORP1-ORD (534-950) with cholesterol, hanging drop 18 °C, 0.1 M Na cacodylate pH 6.2, 1.2 M Na citrate; oligomer by crystal symmetry
[3] = target: the molecule itself; assay: crystal structure; ORP1-ORD (524-950) with cholesterol, hanging drop 18 °C, 0.1 M NaAc pH 4.6, 2.0 M Na formate; oligomer by crystal symmetry

B1: ORP1S (ORP1-ORD, residues 514-950) (natural protein, human, UniProt Q9BXW6 514-950, looked up)
chain: MSEEKDCGGGDALSNGIKKHRTSLPSPMFSRNDFSIWSILRKCIGMELSKITMPVIFNEPLSFLQRLTEYMEHTYLIHKASSLSDPVERMQCVAAFAVSAVASQWERTGKPFNPLLGETYELVRDDLGFRLISEQVSHHPPISAFHAEGLNNDFIFHGSIYPKLKFWGKSVEAEPKGTITLELLEHNEAYTWTNPTCCVHNIIVGKLWIEQYGNVEIINHKTGDKCVLNFKPCGLFGKELHKVEGYIQDKSKKKLCALYGKWTECLYSVDPATFDAYKKNDKKNTEEKKNSKQMSTSEELDEMPVPDSESVFIIPGSVLLWRIAPRPPNSAQMYNFTSFAMVLNEVDKDMESVIPKTDCRLRPDIRAMENGEIDQASEEKKRLEEKQRAARKNRSKSEEDWKTRWFHQGPNPYNGAQDWIYSGSYWDRNYFNLPDIY
notes: ORP1S, the short isoform encoded by human OSBPL1A, residues 514-950 on the numbering of the long isoform ORP1L (1-950); holds only the ORD; pET21b construct; In gel filtration it is a mixture of monomers, dimers and trimers; also called short isoform of OSBPL1A; source: E. coli Rosetta(DE3), purified (Ni-NTA, ion exchange, gel filtration)
stoichiometry N [1]: 2 and 3

B2: ORP1-ORD (residues 534-950) (domain or fragment, human, UniProt Q9BXW6 534-950, looked up)
chain: RTSLPSPMFSRNDFSIWSILRKCIGMELSKITMPVIFNEPLSFLQRLTEYMEHTYLIHKASSLSDPVERMQCVAAFAVSAVASQWERTGKPFNPLLGETYELVRDDLGFRLISEQVSHHPPISAFHAEGLNNDFIFHGSIYPKLKFWGKSVEAEPKGTITLELLEHNEAYTWTNPTCCVHNIIVGKLWIEQYGNVEIINHKTGDKCVLNFKPCGLFGKELHKVEGYIQDKSKKKLCALYGKWTECLYSVDPATFDAYKKNDKKNTEEKKNSKQMSTSEELDEMPVPDSESVFIIPGSVLLWRIAPRPPNSAQMYNFTSFAMVLNEVDKDMESVIPKTDCRLRPDIRAMENGEIDQASEEKKRLEEKQRAARKNRSKSEEDWKTRWFHQGPNPYNGAQDWIYSGSYWDRNYFNLPDIY
notes: OSBP-related domain (ORD) of human ORP1, residues 534-950 on ORP1L (1-950) numbering; Crystallised with cholesterol from Na cacodylate; also called ORP1-ORD (534-950); ORP1S lacking the N-terminal 20 amino acids; source: E. coli Rosetta(DE3), purified (Ni-NTA, ion exchange, gel filtration)
stoichiometry N [2]: 2

B3: ORP1-ORD (residues 524-950) (domain or fragment, human, UniProt Q9BXW6 524-950, looked up)
chain: DALSNGIKKHRTSLPSPMFSRNDFSIWSILRKCIGMELSKITMPVIFNEPLSFLQRLTEYMEHTYLIHKASSLSDPVERMQCVAAFAVSAVASQWERTGKPFNPLLGETYELVRDDLGFRLISEQVSHHPPISAFHAEGLNNDFIFHGSIYPKLKFWGKSVEAEPKGTITLELLEHNEAYTWTNPTCCVHNIIVGKLWIEQYGNVEIINHKTGDKCVLNFKPCGLFGKELHKVEGYIQDKSKKKLCALYGKWTECLYSVDPATFDAYKKNDKKNTEEKKNSKQMSTSEELDEMPVPDSESVFIIPGSVLLWRIAPRPPNSAQMYNFTSFAMVLNEVDKDMESVIPKTDCRLRPDIRAMENGEIDQASEEKKRLEEKQRAARKNRSKSEEDWKTRWFHQGPNPYNGAQDWIYSGSYWDRNYFNLPDIY
notes: OSBP-related domain (ORD) of human ORP1, residues 524-950 on ORP1L (1-950) numbering; Crystallised with cholesterol and with PI(4,5)P2; also called ORP1-ORD (524-950); source: E. coli Rosetta(DE3), purified (Ni-NTA, ion exchange, gel filtration)
stoichiometry N [3]: 3
